In patent US20060134709A1:

Legend:
C1q = test: BIAcore; 2B6 captured on soluble CD32B (2bLAvi) on a CM-5 chip, C1q injected
[1] = target: soluble FcγRIIIA tetrameric complex (human) (UniProt P08637); test: FACS titration of tetramer, 1.4 to 0.0006 µM
[2] = target: FcγRIIB-Fc fusion protein (human) (UniProt P31994); test: BIAcore
[3] = target: soluble monomeric FcγRIIIA-linker-AVITAG (human) (UniProt P08637); test: ELISA
FcγRIIIA 158V (human) = FcγRIIIA 158V (human) (UniProt P08637); test: BIAcore
Sequence of FcγRIIIA 158V (human) (P08637 17-208 F176V): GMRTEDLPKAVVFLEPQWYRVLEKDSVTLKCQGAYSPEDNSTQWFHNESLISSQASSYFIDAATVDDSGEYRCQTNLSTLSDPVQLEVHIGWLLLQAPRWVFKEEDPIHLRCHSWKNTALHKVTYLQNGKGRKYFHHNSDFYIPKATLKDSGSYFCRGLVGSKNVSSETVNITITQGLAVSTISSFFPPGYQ

[4] = target: soluble monomeric FcγRIIIA-linker-AVITAG (human) (UniProt P08637); test: BIAcore
[5] = target: FcγRIIB-Fc fusion protein (human) (UniProt P31994); test: BIAcore: ch4-4-20 captured on BSA-FITC, FcγRIIB-Fc at two concentrations, separate fits, average of the two
[6] = target: FcγRIIB-Fc fusion protein (human) (UniProt P31994); test: ELISA of FcγRIIB-Fc binding; OD listed beside the sensorgrams
[7] = target: soluble monomeric FcγRIIIA-linker-AVITAG (human) (UniProt P08637); test: BIAcore: ch4-4-20 captured on BSA-FITC, FcγRIIIA at 200 nM and 800 nM, separate fits, average of the two concentrations
[8] = target: soluble monomeric FcγRIIIA-linker-AVITAG (human) (UniProt P08637); test: ELISA of FcγRIIIA binding; OD listed beside the sensorgrams
[9] = target: FcγRIIB-Fc fusion protein (human) (UniProt P31994); test: ELISA
soluble FcγRIIB (human) = soluble FcγRIIB (human) (UniProt P31994); test: ELISA
[10] = target: FcγRIIB-Fc fusion protein (human) (UniProt P31994); test: BIAcore; remark: listed apart in the source

Sequence of C1q (P02745 23-245, chain 1 of 3): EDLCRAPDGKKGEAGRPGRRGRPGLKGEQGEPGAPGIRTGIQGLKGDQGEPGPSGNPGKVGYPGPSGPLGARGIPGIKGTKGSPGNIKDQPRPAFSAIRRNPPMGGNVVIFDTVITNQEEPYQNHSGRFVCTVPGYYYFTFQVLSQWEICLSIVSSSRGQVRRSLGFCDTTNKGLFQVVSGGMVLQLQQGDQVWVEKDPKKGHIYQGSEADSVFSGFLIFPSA
Sequence of C1q (P02746 28-253, chain 2 of 3, further chain): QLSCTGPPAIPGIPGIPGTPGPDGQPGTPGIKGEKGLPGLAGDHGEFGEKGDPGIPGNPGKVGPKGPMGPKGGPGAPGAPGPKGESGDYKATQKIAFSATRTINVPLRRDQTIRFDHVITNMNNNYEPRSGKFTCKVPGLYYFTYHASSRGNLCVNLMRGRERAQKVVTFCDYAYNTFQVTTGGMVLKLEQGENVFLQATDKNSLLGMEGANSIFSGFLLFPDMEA
Sequence of C1q (P02747 29-245, chain 3 of 3, further chain): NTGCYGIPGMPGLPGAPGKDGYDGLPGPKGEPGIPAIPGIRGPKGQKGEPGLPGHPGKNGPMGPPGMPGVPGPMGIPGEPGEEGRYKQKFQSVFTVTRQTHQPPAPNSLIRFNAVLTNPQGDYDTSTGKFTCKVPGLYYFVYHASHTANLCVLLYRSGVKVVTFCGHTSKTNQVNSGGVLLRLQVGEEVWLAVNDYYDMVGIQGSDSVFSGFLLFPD
Sequence of soluble monomeric FcγRIIIA-linker-AVITAG (human) (P08637 17-203 F176V limits assumed, form in doubt): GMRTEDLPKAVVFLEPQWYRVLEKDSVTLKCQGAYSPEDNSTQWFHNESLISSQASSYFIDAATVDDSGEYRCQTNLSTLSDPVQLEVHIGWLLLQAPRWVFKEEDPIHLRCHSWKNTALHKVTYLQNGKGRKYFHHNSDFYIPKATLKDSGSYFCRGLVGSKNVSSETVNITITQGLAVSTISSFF
Sequence of FcγRIIB-Fc fusion protein (human) (P31994 43-217): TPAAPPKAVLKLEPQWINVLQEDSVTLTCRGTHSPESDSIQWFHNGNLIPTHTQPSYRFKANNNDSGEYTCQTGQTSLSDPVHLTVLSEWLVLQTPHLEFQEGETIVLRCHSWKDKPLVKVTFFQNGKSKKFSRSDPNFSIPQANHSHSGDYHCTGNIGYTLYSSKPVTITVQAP
Sequence of soluble FcγRIIIA tetrameric complex (human) (P08637 17-203 F176V limits assumed, form in doubt, one chain of several): as the sequence (P08637 17-203 F176V limits assumed, form in doubt) above

Substance | Koff WT/Mut [2] | fold increase vs wt [3] [x] | Kd [2] [nM] | koff [2] [s⁻¹] | Kd [4] [nM] | koff [4] [s⁻¹] | further results
2B6 (panel FIG. 34B-1) (antibody) | – | – | – | – | – | – | koff (C1q): 0.13 s⁻¹
2B6 (panel FIG. 34B-2) (antibody) | – | – | – | – | – | – | Kd (C1q): 7 nM; koff (C1q): 0.06 s⁻¹
Aga2p-CH1-CH3 fusion (pYD-CH1), wild type Fc on yeast | – | – | – | – | – | – | Kd [1]: 6 nM
ch4-4-20 A330V (antibody) | 0.61 | – | – | – | – | – | –
ch4-4-20 A330V, G427M (antibody) | 0.62 | – | – | – | – | – | –
ch4-4-20 E233G (antibody) | 0.54 | – | – | – | – | – | –
ch4-4-20 E293V, Q295E, A327T (antibody) | 1.3 | 0.4 | 86 | 0.074 | 195 | 0.198 | fold vs wt [3]: 1.4 X; Koff WT/Mut (FcγRIIIA 158V (human)): 0.86
ch4-4-20 F243I, V379L (antibody) | – | – | 120 | 0.113 | 99.7 | 0.105 | –
ch4-4-20 F243I, V379L, G420V (antibody) | – | – | 93.4 | 0.101 | – | – | –
ch4-4-20 F243L, R255L (antibody) | – | – | 74.7 | 0.09 | 90 | 0.075 | Kd [5]: 82.3 nM; koff [5]: 0.1 s⁻¹; fold vs wt [3]: 1 x; ELISA, OD [6]: 0.1 OD; Kd [7]: 91.8 nM; koff [7]: 0.073 s⁻¹; ELISA, OD [8]: 0.37 OD
ch4-4-20 F372Y (antibody) | – | – | – | – | – | – | ELISA, OD [9]: 1.55 OD; Kd [7]: 84.8 nM; ELISA, OD [8]: 1 OD
ch4-4-20 G316D, A378V, D399E (antibody) | – | 1.5 | 46 | 0.06 | 72 | 0.117 | fold increase vs wt (soluble FcγRIIB (human)): 14 x; fold vs wt (soluble FcγRIIB (human)): 14 X; fold vs wt [3]: 1.5 X
ch4-4-20 H268N, P396L (antibody) | 1.04 | 2.2 | 46.6 | 0.036 | 178 | 0.159 | fold increase vs wt (soluble FcγRIIB (human)): 4.5 x; fold vs wt (soluble FcγRIIB (human)): 4.5 X; fold vs wt [3]: 2.2 X; Koff WT/Mut (FcγRIIIA 158V (human)): 0.92
ch4-4-20 K246I, K334N (antibody) | – | – | – | – | – | – | Kd [10]: 45.3 nM; Kd [7]: 100 nM; ELISA, OD [8]: 0.75 OD
ch4-4-20 K248M (antibody) | 1.03 | – | – | – | – | – | Koff WT/Mut (FcγRIIIA 158V (human)): 0.977; Kd ([2]; Fc variant MGFc 37): 100 nM; koff ([2]; Fc variant MGFc 37): 0.091 s⁻¹; Kd ([2]; Fc variant MGFc 40): 110 nM; koff ([2]; Fc variant MGFc 40): 0.09 s⁻¹
ch4-4-20 K261N, K210M, P396L (antibody) | 0.85 | 2 | – | – | – | – | fold increase vs wt (soluble FcγRIIB (human)): 4.2 x; Koff WT/Mut (FcγRIIIA 158V (human)): 1.29
ch4-4-20 K288M, K334E (antibody) | – | 3 | 95.6 | 0.089 | 75.4 | 0.1 | ELISA, OD [3]: 1.1 OD; fold vs wt [3]: 3 X; ELISA, OD [6]: 0.13 OD; kon [4]: 1.37e+06 M⁻¹ s⁻¹
ch4-4-20 K288N, A330S, P396L (antibody) | – | – | 33.4 | – | – | – | Kd [10]: 41.3 nM; ELISA, OD [9]: 1.2 OD; ELISA, OD [3]: 1 OD
ch4-4-20 K288R, T307A, K344E, P396L (antibody) | 0.89 | 4.1 | – | – | – | – | fold increase vs wt (soluble FcγRIIB (human)): 2.3 x; Koff WT/Mut (FcγRIIIA 158V (human)): 1.27
ch4-4-20 K326E (antibody) | – | 2 | – | – | 92 | 0.112 | Kd [10]: 51.7 nM; koff [10]: 0.043 s⁻¹; fold increase vs wt (soluble FcγRIIB (human)): 3.5 x; ELISA, OD [9]: 1.25 OD; ELISA, OD [3]: 1 OD; kon [4]: 1.23e+06 M⁻¹ s⁻¹
ch4-4-20 K334E, R292L (antibody) | – | – | 108 | 0.107 | 70.2 | 0.105 | ELISA, OD [3]: 1.25 OD; ELISA, OD [6]: 0.1 OD; kon [4]: 1.43e+06 M⁻¹ s⁻¹
ch4-4-20 K334E, T359N, T366S (antibody) | – | 1.5 | 72 | 0.11 | 55.2 | 0.128 | fold vs wt [3]: 1.5 X
ch4-4-20 K392T, P396L (antibody) | 2.3 | 4.5 | 50 | 0.041 | 84 | 0.104 | fold increase vs wt (soluble FcγRIIB (human)): 2.5 x; fold vs wt (soluble FcγRIIB (human)): 2.5 X; fold vs wt [3]: 4.5 X; Koff WT/Mut (FcγRIIIA 158V (human)): 1.64
ch4-4-20 Mut 6 (S219V) (antibody) | – | – | – | – | 264 | 0.175 | Kd [10]: 66.5 nM; koff [10]: 0.06 s⁻¹; ELISA, OD [9]: 0.35 OD; ELISA, OD [3]: 0.6 OD; koff [7]: 0.173 s⁻¹; kon [4]: 667000 M⁻¹ s⁻¹
ch4-4-20 N276Y (antibody) | 0.64 | – | – | – | – | – | –
ch4-4-20 P217S, P396L (antibody) | 0.95 | 1.6 | – | – | – | – | fold increase vs wt (soluble FcγRIIB (human)): 4.5 x; Koff WT/Mut (FcγRIIIA 158V (human)): 1.17
ch4-4-20 P247L, N421K (antibody) | – | 3 | 66 | 0.065 | 62 | 0.108 | fold vs wt [3]: 3 X
